{"source": "patent US20160024194A1", "key": {"[1]": {"biological_target": "human fibronectin (purified; plasma fibronectin used in the ELISA assays; purified Fibronectin protein from BIOPUR AG in Biacore) (human) (UniProt P02751)", "test": "Biacore 3000, 7A8 captured on anti-mouse antibody, fibronectin injected at 15 nM-500 nM, 1:1 Langmuir fit"}, "[2]": {"biological_target": "human fibronectin (purified; plasma fibronectin used in the ELISA assays; purified Fibronectin protein from BIOPUR AG in Biacore) (human) (UniProt P02751)", "test": "Biacore 3000, 7A8 captured on anti-mouse antibody, fibronectin injected at 20 nM-100 nM, 1:1 Langmuir fit"}, "[3]": {"biological_target": "human fibronectin (purified; plasma fibronectin used in the ELISA assays; purified Fibronectin protein from BIOPUR AG in Biacore) (human) (UniProt P02751)", "test": "SPR, Biacore 3000, antibody captured on anti-mouse antibody on CM-5 chip, fibronectin in solution, 1:1 Langmuir fit, two experiments; lower end of the range from the two independent experiments; the text does not say which experiment"}, "[4]": {"biological_target": "human fibronectin (purified; plasma fibronectin used in the ELISA assays; purified Fibronectin protein from BIOPUR AG in Biacore) (human) (UniProt P02751)", "test": "SPR, Biacore 3000, antibody captured on anti-mouse antibody on CM-5 chip, fibronectin in solution, 1:1 Langmuir fit, two experiments; upper end of the range from the two independent experiments; the text does not say which experiment"}}}
{"binder": "7A8 monoclonal antibody produced by hybridoma PTA-120971 (antibody, V domains shown) VH: QVQLRESEPGLVAPSRSLSITCTVSGFSLTSYAVSWVRQPPGKGLEWLGVIWTGGGTNYNSALKSRLSISKDNSKNQVFLKMNSLQTDDTARYYCARYSNLYYAMDYWGQGTSVTVSS VL: DIVMTQSQKFMSTSVGERVSITCKASQNVGTNVAWYQQKAGQSLELLIYGASNRHTGVPDRFTGSGSGTDFTLTITNVQSEDMTNYFCEQYRSYPLTFGGGSKLEIK", "values": [{"measurement": "Kd", "setting": "[1]", "result": 2.8, "unit": "nM"}, {"measurement": "Kd", "setting": "[2]", "result": 7.26, "unit": "nM"}, {"measurement": "Kd", "setting": "[3]", "result": 2.8, "unit": "nM"}, {"measurement": "Kd", "setting": "[4]", "result": 7.26, "unit": "nM"}]}
